Results from patent US20230227838A1, “ENHANCED CELL SURVIVAL AGAINST BIOTIC AND ABIOTIC STRESSES THROUGH SALICYLICK ACID-INDUCED NPR1 CONDENSATES” (priority 2020, published 2023).

Columns and labels:
CUL3 = assay: Co-IP of Myc-CUL3 with HA-fused NPR1 or variants; type: binding, Arabidopsis thaliana; settings: for CUL3 pull-down signal in co-IP: 1 mM SA for 5 hr
Description: (§1) Plant transformation: For plant transformations, the Agrobacterium tumefaciens strain GV3101 was transformed with plant binary vectors carrying the indicated transgenes. For stable expression in Arabidopsis, a floral dipping method was used. For transient expression in N benthamiana, the Agrobacterium carrying the indicated construct was cultured overnight at 28° C. in Luria-Bertani (LB) broth medium supplemented with appropriate antibiotics: spectinomycin (100 μg/ml), kanamycin (50 μg/ml), gentamycin (50 μg/ml), and rifampicin (25 μg/ml). The obtained culture was re-inoculated at 1:10 into fresh growth media with antibiotics and grown for another 4 hr. Cells were then spun down at 1,600 g for 10 min, and inoculum was prepared by resuspending cells to OD600 nm=1 in double distilled water (DDW) containing 200 μM acetosyringone (Sigma). Unless otherwise stated, for co-IP, co-localization, and BiFC assays in N. benthamiana, the proteins were co-expressed at 1:1 mixture of the relevant Agrobacteria inoculums. In all BiFC assays, the pair of YN/YC fusions was co-expressed together with free mCherry to mark the cytoplasm and nucleus, mCherry-NLS to mark the nucleus only, or mCherry-fused test proteins for co-localization analysis. The inoculum was pressure infiltrated into N. benthamiana leaves at the abaxial side using 1 ml syringe without the needle. Due to low overall levels of NPR1-GFP in transgenic plants, a transient expression assay in Arabidopsis seedlings was used to monitor NPR1-GFP subcellular localization after SA treatment (FIG. 2B). To limit the imaging time in this transient assay (2 hours), a higher baseline SA concentration had to be used. Seeds of WT (Col-0) Arabidopsis were germinated on solid half-strength Murashige and Skoog (1/2 MS) medium and grown for 4 days. Agrobacterium carrying the indicated constructs was grown overnight in LB medium supplemented with appropriate antibiotics. The obtained culture was re-inoculated at 1:10 into virulence induction medium [50.78 mM MES, 0.5% Glucose, 1.734 mM NaH2PO4, 5% of 20X-AB mix (373.9 mM NH4C1, 24.34 mM MgSO4, 40.23 mM KCl, 1.36 mM CaCl2 and 0.18 mM FeSO4·7H2O), 200 μM acetosyringone] supplemented with 25 μg/ml rifampicin and grown for another 24 hr at 28° C. to OD600=0.8 (inoculum). Seedlings were vacuum-infiltrated with the inoculum, and at 48 hpi (hours post inoculation), treatments were performed by submerging the transformed seedlings in water or SA solution at indicated concentrations for 2 hr. Entire cotyledons were sampled for microscopy.
Protein analysis and IP. Recombinant protein analysis was performed using transient expression in N. benthamiana, or stable over-expression in transgenic Arabidopsis, or expression in E. coli. Total protein extraction from plants was performed by homogenizing leaf tissue in the plant extraction buffer [50 mM Tris-HCl (pH 7.5), 150 mM NaCl, 5 mM EDTA, 0.2% Triton X-100, 0.2% Nonidet P-40] supplemented with 1 mM PMSF, 100 μM MG132, and EDTA-free protease inhibitor cocktail (Roche). For ubiquitinated protein analysis in plants, 100 μM of DUB (deubiquitinase) inhibitor (LifeSensors) and 10 mM NEM were added. Next, the lysates were cleared by centrifugation at 14,000 rpm for 15 min followed by filtering through a 0.2 μm filter. […] Pull-downs or IP experiments were done on total protein extracts by incubating protein samples in the lysis buffer overnight with indicated affinity tag or antibody conjugated to agarose or magnetic beads: GFP-trap agarose beads (Chromotek) for GFP fusions; RFP-trap agarose beads (Chromotek) for mCherry fusions; anti-HA magnetic beads (ThermoFisher) for HA tag fusions; anti-DYKDDDDK coupled magnetic agarose (ThermoFisher) for FLAG tag fusions; and glutathione magnetic agarose (ThermoFisher) for GST fusions. Unless otherwise indicated, after pull-down/IP, beads were washed 3 times and proteins were eluted by boiling in the 2×SDS sample buffer. […]

[1] = system: cytoplasmic condensates (SINCs); assay: Confocal imaging of localization and condensate (body) formation of GFP-fused NPR proteins and variants; type: cell-based, Nicotiana benthamiana; settings: no SA treatment / mock
Description: as §1
Confocal laser scanning microscopy. Unless otherwise indicated, all imaging data and micrographs for single protein imaging, co-localizations, BiFC and time-lapse were obtained from the transient expression in N. benthamiana using the relevant Agrobacteria strains. All imaging was done with confocal laser scanning fluorescence microscopy using Zeiss 880 airyscan inverted confocal microscope with a 40×/1.2 water correction objective. GFP (eGFP) was excited with a 488 nm argon laser and emission was collected with a 505-530 nm band pass filter. YFP was excited with an argon laser using a 514 nm beam splitter, and emission was detected with a 520-555 nm band pass filter. mCherry was excited with a 561 nm diode laser, and emission was detected with a 575-615 nm band pass filter. When eGFP/YFP were imaged together with mCherry, a spectral GASP detector was used to collect emission from eGFP/YFP. Propidium iodide (PI) was excited with 488 nm argon laser and emission was detected with a 590-620 nm band pass filter. Time-lapse imaging was carried out on live leaf tissue samples from N. benthamiana plants transiently expressing the protein of interest. Image acquisition was done in 5 min intervals for the duration of 2 hr by scanning 30 consecutive focal planes along the Z-axis covering the entire thickness of an epidermal cell. Z-projection was done to each time frame stack before composing a final time-lapse file. […]

Myc-CUL3 = target: T1, Myc-CUL3 (Arabidopsis thaliana, UniProt Q9ZVH4 1-732); assay: co-IP, N. benthamiana, 1 mM SA 5 hr
T1 construct: also called AtCUL3A (AT1G26830); not shown: N-terminal Myc tag (pEG203)
T1 sequence (looked up): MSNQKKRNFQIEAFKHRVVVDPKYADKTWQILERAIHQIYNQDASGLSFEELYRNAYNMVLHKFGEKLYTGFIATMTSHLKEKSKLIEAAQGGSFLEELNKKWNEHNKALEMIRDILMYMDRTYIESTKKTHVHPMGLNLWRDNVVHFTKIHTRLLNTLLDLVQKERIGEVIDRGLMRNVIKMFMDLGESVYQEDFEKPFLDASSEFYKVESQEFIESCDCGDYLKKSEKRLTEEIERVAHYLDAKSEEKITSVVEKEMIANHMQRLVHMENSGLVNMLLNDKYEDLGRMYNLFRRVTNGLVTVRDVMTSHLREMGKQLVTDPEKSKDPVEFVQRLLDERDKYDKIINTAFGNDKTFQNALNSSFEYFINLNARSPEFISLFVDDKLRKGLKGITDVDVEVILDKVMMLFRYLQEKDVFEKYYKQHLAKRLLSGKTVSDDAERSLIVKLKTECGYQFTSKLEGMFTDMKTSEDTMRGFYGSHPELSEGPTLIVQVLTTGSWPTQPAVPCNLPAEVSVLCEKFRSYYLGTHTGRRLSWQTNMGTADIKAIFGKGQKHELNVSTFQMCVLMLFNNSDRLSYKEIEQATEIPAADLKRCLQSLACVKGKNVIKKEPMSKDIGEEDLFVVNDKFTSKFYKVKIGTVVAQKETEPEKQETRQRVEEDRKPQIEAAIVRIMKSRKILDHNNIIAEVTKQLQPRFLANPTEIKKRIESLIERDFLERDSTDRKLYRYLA

[2] = system: Psm ES4326/AvrRpt2-mediated cell death; assay: Cell death (conductivity/electrolyte leakage, trypan blue) after Psm ES4326/AvrRpt2 inoculation; type: in vivo, Arabidopsis thaliana; settings: transgenic plants expressing the mutant in npr1-2 background; 1 mM SA 24 hr before inoculation
Description: Chemical treatment, pathogen infection and cell death assays. […] At 2 days, the bacterial colonies were scored.
Trypan blue staining. Leaves of three-week-old Arabidopsis infected with Psm ES4326/AvrRpt2 were sampled at 1 dpi, boiled in 95% ethanol until completely bleached, followed by boiling for 3 min in a 1:1 mixture of 95% ethanol and staining solution (10 ml lactic acid, 10 ml glycerol, 10 g phenol and 10 mg trypan blue, dissolved in 10 ml DDW). The leaves were then de-stained in 2.5 g/ml chloral hydrate solution and transferred to 70% glycerol for subsequent imaging.

Row | Molecule | CUL3 pull-down in co-IP in the absence of SA (CUL3; absence of SA) | condensate formation in the absence of SA (constitutive) [1] | binding result (Myc-CUL3) | CUL3 pull-down signal in co-IP (CUL3) | protection against cell death induced by Psm ES4326/AvrRpt2 (SA-mediated survival phenotype) [2]
1 | ACTD: NPR1 with the C-terminal domain (CTD) deleted (protein, left off: small tags and cut ends, NPR1 with the C-terminal domain (CTD) deleted) MDTTIDGFADSYEISSTSFVATDNTDSSIVYLAAEQVLTGPDVSALQLLSNSFESVFDSPDDFYSDAKLVLSDGREVSFHRCVLSARSSFFKSALAAAKKEKDSNNTAAVKLELKEIAKDYEVGFDSVVTVLAYVYSSRVRPPPKGVSECADENCCHVACRPAVDFMLEVLYLAFIFKIPELITLYQRHLLDVVDKVVIEDTLVILKLANICGKACMKLLDRCKEIIVKSNVDMVSLEKSLPEELVKEIIDRRKELGLEVPKVKKHVSNVHKALDSDDIELVKLLLKEDHTNLDDACALHFAVAYCNVKTATDLLKLDLADVNHRNPRGYTVLHVAAMRKEPQLILSLLEKGASASEATLEGRT | significantly enhanced the interaction with CUL3 | formed constitutive condensates |  |  | 
2 | rdr1-HA (other, not shown: C-terminal HA tag (pLN462)) MDTTIDGFADSYEISSTSFVATDNTDSSIVYLAAEQVLTGPDVSALQLLSNSFESVFDSPDDFYSDAKLVLSDGREVSFHRCVLSARSSFFKSALAAAKKEKDSNNTAAVKLELKEIAKDYEVGFDSVVTVLAYVYSSRVRPPPKGVSEAADENAAHVAARPAVDFMLEVLYLAFIFKIPELITLYQRHLLDVVDKVVIEDTLVILKLANICGKACMKLLDRCKEIIVKSNVDMVSLEKSLPEELVKEIIDRRKELGLEVPKVKKHVSNVHKALDSDDIELVKLLLKEDHTNLDDACALHFAVAYCNVKTATDLLKLDLADVNHRNPRGYTVLHVAAMRKEPQLILSLLEKGASASEATLEGRTALMIAKQATMAVECNNIPEQCKHSLKGRLCVEILEQEDKREQIPRDVPPSFAVAADELKMTLLDLENRVALAQRLFPTEAQAAMEIAEMKGTCEFIVTSLEPDRLTGTKRTSPGVKIAPFRILEEHQSRLKALSKTVELGKRFFPRCSAVLDQIMNCEDLTQLACGEDDTAEKRLQKKQRYMEIQETLKKAFSEDNLELGNSSLTDSTSSTSKSTGGKRSNRKLSHRRR |  |  | binds |  | 
3 | rdr2: NPR1 with cysteine cluster of RDR2 mutated (C378/385/394A) (protein, A. thaliana npr1 rdr2 protein) MDTTIDGFADSYEISSTSFVATDNTDSSIVYLAAEQVLTGPDVSALQLLSNSFESVFDSPDDFYSDAKLVLSDGREVSFHRCVLSARSSFFKSALAAAKKEKDSNNTAAVKLELKEIAKDYEVGFDSVVTVLAYVYSSRVRPPPKGVSECADENCCHVACRPAVDFMLEVLYLAFIFKIPELITLYQRHLLDVVDKVVIEDTLVILKLANICGKACMKLLDRCKEIIVKSNVDMVSLEKSLPEELVKEIIDRRKELGLEVPKVKKHVSNVHKALDSDDIELVKLLLKEDHTNLDDACALHFAVAYCNVKTATDLLKLDLADVNHRNPRGYTVLHVAAMRKEPQLILSLLEKGASASEATLEGRTALMIAKQATMAVEANNIPEQAKHSLKGRLAVEILEQEDKREQIPRDVPPSFAVAADELKMTLLDLENRVALAQRLFPTEAQAAMEIAEMKGTCEFIVTSLEPDRLTGTKRTSPGVKIAPFRILEEHQSRLKALSKTVELGKRFFPRCSAVLDQIMNCEDLTQLACGEDDTAEKRLQKKQRYMEIQETLKKAFSEDNLELGNSSLTDSTSSTSKSTGGKRSNRKLSHRRR |  | formed cytoplasmic condensates in the absence of SA treatment |  | strong interactions with CUL3 | stronger protection
4 | rdr1: NPR1 with cysteine cluster of RDR1 mutated (C150/155/156/160A) (protein, A. thaliana npr1 rdr1 protein) MDTTIDGFADSYEISSTSFVATDNTDSSIVYLAAEQVLTGPDVSALQLLSNSFESVFDSPDDFYSDAKLVLSDGREVSFHRCVLSARSSFFKSALAAAKKEKDSNNTAAVKLELKEIAKDYEVGFDSVVTVLAYVYSSRVRPPPKGVSEAADENAAHVAARPAVDFMLEVLYLAFIFKIPELITLYQRHLLDVVDKVVIEDTLVILKLANICGKACMKLLDRCKEIIVKSNVDMVSLEKSLPEELVKEIIDRRKELGLEVPKVKKHVSNVHKALDSDDIELVKLLLKEDHTNLDDACALHFAVAYCNVKTATDLLKLDLADVNHRNPRGYTVLHVAAMRKEPQLILSLLEKGASASEATLEGRTALMIAKQATMAVECNNIPEQCKHSLKGRLCVEILEQEDKREQIPRDVPPSFAVAADELKMTLLDLENRVALAQRLFPTEAQAAMEIAEMKGTCEFIVTSLEPDRLTGTKRTSPGVKIAPFRILEEHQSRLKALSKTVELGKRFFPRCSAVLDQIMNCEDLTQLACGEDDTAEKRLQKKQRYMEIQETLKKAFSEDNLELGNSSLTDSTSSTSKSTGGKRSNRKLSHRRR |  | formed cytoplasmic condensates in the absence of SA treatment |  | strong interactions with CUL3 | no protection against cell death
